Assay [1] addresses human ADAMTS13 (in normal human plasma) (human) (UniProt Q76LX8). Nature of the assay: sandwich ELISA, antibody coated 10 to 0.02 µg/mL, constant 15% NHP, detection with biotinylated 17G2 and 19H4. On the technique in general: ELISA stands for enzyme-linked immunosorbent assay.
The target is the same in assay [2]. Nature of the assay: cell-based or functional assay.

Chain of human ADAMTS13 (in normal human plasma) (human) (Q76LX8 75-1427): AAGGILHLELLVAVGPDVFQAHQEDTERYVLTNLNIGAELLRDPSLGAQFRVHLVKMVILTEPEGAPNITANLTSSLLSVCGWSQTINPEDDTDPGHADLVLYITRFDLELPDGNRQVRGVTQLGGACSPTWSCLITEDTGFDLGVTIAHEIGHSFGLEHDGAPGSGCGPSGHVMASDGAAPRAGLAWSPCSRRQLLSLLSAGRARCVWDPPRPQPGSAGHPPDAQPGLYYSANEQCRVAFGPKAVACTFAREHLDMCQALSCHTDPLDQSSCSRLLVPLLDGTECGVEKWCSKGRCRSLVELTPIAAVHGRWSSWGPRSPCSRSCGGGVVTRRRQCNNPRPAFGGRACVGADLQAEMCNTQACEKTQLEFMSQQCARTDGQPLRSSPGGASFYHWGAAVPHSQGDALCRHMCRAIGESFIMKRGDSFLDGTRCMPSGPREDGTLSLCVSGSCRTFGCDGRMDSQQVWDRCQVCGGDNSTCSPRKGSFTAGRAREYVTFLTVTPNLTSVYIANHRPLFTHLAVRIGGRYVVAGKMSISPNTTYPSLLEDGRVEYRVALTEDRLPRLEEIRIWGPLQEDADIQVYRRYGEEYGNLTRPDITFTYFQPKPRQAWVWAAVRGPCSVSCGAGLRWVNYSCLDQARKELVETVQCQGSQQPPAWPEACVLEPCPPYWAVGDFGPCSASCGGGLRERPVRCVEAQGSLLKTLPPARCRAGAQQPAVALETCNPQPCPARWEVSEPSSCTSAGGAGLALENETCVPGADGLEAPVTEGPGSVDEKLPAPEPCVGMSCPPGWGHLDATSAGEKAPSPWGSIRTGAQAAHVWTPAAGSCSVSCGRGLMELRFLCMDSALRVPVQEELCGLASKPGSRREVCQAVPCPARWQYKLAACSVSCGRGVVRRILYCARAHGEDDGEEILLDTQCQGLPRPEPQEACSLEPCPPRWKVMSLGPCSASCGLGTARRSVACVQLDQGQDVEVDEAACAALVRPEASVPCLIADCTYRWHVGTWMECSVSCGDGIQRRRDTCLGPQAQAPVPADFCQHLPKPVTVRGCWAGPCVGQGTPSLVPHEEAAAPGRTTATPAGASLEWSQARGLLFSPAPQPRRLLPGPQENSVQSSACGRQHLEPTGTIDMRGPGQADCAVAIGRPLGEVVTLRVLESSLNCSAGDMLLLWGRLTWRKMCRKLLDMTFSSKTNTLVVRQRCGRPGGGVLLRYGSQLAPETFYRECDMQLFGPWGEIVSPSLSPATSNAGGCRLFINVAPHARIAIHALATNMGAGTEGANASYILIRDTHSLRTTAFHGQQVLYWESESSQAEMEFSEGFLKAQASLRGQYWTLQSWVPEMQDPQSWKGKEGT

B1: anti-ADAMTS13 monoclonal antibody 17C7 (antibody, V domains shown)
VH: EVQLVESGGDLVKSGGSLKLSCAASGFIFSNYAMSWVRQTPEKRLEWGATITTGGFYTFYSDSVKGRFTISRDNAKNTLYLQMSSLRSEDTAMYYCARHRYDDYYALDYWGQGTSVTVSS
VL: ENVLTQSPAIMSTSPGEKVTMTCNVSSSVSYMRWFQQKSSTSPKLWIYDTSKLASGVPGRFSGSGSGHSYSLTISSMEADDVATYYCFQGNGYPLTFGAGTKLELK
Take B1: in assay [1], the half maximal binding (Kd) is 0.51 µg/mL. In assay [2], this molecule displayed a half maximal inhibitory concentration (IC50) of ADAMTS13 activity in normal human plasma, FRETS-VWF73 assay of 0.47 µg/mL.

The values are drawn from patent US20180362665A1.
